Experimental data as given in patent US20210347900A1 (AstraZeneca / MedImmune, published 2021).
Read-outs that look alike come from different tables or passages of the source.

Experiments:
[1] = target: T1, human LOX1 on cells (human LOX1 transfected CHO TREX cells) (human, UniProt P78380 1-273); test: cell-based or functional assay
[2] = target: T2, Human CLEC-7A (Dectin-1) (human, UniProt Q9BXN2-2 66-201, limits assumed); test: IgG binding ELISA on coated antigen, absorbance at 450 nm
T2 construct: Bought protein; also called C-type lectin domain family 7 member A
T2 sequence (looked up): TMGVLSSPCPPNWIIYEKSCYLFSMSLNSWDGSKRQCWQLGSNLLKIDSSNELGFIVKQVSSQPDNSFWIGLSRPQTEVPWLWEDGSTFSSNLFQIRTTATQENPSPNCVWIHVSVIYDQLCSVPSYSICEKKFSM

[3] = target: T3, Human CLEC-1A (human, UniProt Q8NC01 74-280, limits assumed); test: as above
T3 construct: Bought protein; also called C-type lectin domain family 1 member A
T3 sequence (looked up): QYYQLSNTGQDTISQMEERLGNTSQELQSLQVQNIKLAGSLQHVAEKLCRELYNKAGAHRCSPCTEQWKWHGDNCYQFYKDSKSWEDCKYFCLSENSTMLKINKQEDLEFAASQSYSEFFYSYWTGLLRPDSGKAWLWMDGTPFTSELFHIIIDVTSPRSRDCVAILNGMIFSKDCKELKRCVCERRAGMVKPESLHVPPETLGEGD

[4] = target: T4, Human CLEC-4L (DC-SIGN) (human, UniProt Q9NNX6 62-404); test: as above
T4 construct: Bought protein; also called C-type lectin domain family 4 member L
T4 sequence (looked up): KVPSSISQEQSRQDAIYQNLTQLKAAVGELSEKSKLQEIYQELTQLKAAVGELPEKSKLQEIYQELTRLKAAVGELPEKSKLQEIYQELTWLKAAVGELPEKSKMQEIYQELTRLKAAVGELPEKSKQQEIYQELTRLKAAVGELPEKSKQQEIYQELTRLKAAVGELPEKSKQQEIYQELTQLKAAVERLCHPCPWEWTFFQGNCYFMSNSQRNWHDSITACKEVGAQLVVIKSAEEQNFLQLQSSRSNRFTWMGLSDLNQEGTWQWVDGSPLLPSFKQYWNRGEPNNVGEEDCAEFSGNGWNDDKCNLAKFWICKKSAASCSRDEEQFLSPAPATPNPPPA

[5] = target: T5, Human CLEC-1B (CLEC-2) (human, UniProt Q9P126 58-229, limits assumed); test: as above
T5 construct: Bought protein; also called C-type lectin domain family 1 member B

[6] = target: T6, Human SR-A1 (MSR) (human, UniProt P21757 77-451); test: as above
T6 construct: Bought protein; also called Macrophage scavenger receptor types I and II
T6 sequence (looked up): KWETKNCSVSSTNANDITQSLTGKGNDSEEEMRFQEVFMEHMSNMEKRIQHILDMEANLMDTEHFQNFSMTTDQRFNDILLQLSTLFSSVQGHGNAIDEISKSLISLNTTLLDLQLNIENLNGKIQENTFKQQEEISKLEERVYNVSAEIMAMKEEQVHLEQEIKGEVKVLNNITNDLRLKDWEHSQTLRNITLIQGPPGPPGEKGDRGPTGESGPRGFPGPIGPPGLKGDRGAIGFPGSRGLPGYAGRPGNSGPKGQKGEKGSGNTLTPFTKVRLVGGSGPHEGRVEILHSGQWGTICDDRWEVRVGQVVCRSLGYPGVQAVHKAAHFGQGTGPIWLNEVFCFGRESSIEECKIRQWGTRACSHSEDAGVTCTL

[7] = target: T7, Human SR-B3 (CD36) (human, UniProt P16671 30-439); test: as above
T7 construct: Bought protein; also called Platelet glycoprotein 4

[8] = target: T1, human LOX1 on cells (human LOX1 …); test: competition with DyLight 649 AGE-BSA on human LOX1 CHO TREX cells, FMAT
[9] = target: T8, recombinant human LOX1 (R&D Systems) (human, UniProt P78380 61-273); test: competition with biotin CRP on plate-bound recombinant human LOX1, DELFIA
[10] = target: T1, human LOX1 on cells (human LOX1 …); test: competition with DyLight 649 oxLDL on hLOX1 CHO TREX cells (FMAT); row label not given, assay assigned by block order of Table 5
[11] = target: T1, human LOX1 on cells (human LOX1 …); test: competition with DyLight 649 AGE-BSA on hLOX1 CHO TREX cells (FMAT); row label not given, assay assigned by block order of Table 5
[12] = target: T8, recombinant human LOX1 (R&D Systems); test: competition with biotin CRP on immobilised recombinant hLOX1 (DELFIA); row label not given, assay assigned by block order of Table 5
[13] = target: T1, human LOX1 on cells (human LOX1 …); test: saturation binding of DyLight 649 labelled antibody on hLOX1 CHO TREX cells (FMAT); DyLight 649 labeled antibody on hLOX1 CHO TREX cells
[14] = target: T1, human LOX1 on cells (human LOX1 …); test: cell-based or functional assay; remark: listed apart in the source
[15] = target: T2, Human CLEC-7A (Dectin-1); test: IgG binding ELISA on coated antigen, absorbance at 450 nm; remark: listed apart in the source
[16] = target: T3, Human CLEC-1A; test: as above; remark: listed apart in the source
[17] = target: T4, Human CLEC-4L (DC-SIGN); test: as above; remark: listed apart in the source
[18] = target: T5, Human CLEC-1B (CLEC-2); test: as above; remark: listed apart in the source
[19] = target: T6, Human SR-A1 (MSR); test: as above; remark: listed apart in the source
[20] = target: T7, Human SR-B3 (CD36); test: as above; remark: listed apart in the source
[21] = target: T1, human LOX1 on cells (human LOX1 …); test: competition with DyLight 649 oxLDL on hLOX1 CHO TREX cells (FMAT), mean
[22] = target: T1, human LOX1 on cells (human LOX1 …); test: competition with DyLight 649 AGE-BSA on hLOX1 CHO TREX cells (FMAT), mean
[23] = target: T8, recombinant human LOX1 (R&D Systems); test: competition with biotin CRP on immobilised recombinant hLOX1 (DELFIA), mean
[24] = target: T9, human LOX1 SNP K167N variant on cells (K167N SNP transfected CHO TREX cells) (human, UniProt P78380 1-273); test: competition with DyLight 649 oxLDL on K167N hLOX1 CHO TREX cells (FMAT), mean
T9 construct: whole, on cells; also called hLOX1 K167N; K167N hLOX1 CHO

[25] = target: T10, mouse LOX1-(FlagHis) extracellular domain (mouse, UniProt Q9EQ09 55-363); test: IgG binding ELISA on coated antigen, europium anti-human IgG detection
T10 construct: extracellular domain

[26] = target: T11, rat LOX1-(FlagHis) extracellular domain (rat, UniProt O70156 55-364); test: as above
T11 construct: extracellular domain

[27] = target: T12, rabbit LOX1-(FlagHis) extracellular domain (rabbit, UniProt Q9XTA8 55-274); test: as above
T12 construct: extracellular domain

[28] = target: T1, human LOX1 on cells (human LOX1 …); test: competition with DyLight 649 oxLDL on human LOX1 CHO TREX cells, FMAT
[29] = target: T1, human LOX1 on cells (human LOX1 …); test: competition with DyLight 649 AGE-BSA on human LOX1 CHO TREX cells, FMAT; remark: listed apart in the source
[30] = target: T8, recombinant human LOX1 (R&D Systems); test: competition with biotin CRP on plate-bound recombinant human LOX1, DELFIA; remark: listed apart in the source
[31] = target: T9, human LOX1 SNP K167N variant on cells …; test: competition with DyLight 649 oxLDL on human LOX1 K167N CHO TREX cells, FMAT

T5 sequence (Q9P126 58-229 limits assumed): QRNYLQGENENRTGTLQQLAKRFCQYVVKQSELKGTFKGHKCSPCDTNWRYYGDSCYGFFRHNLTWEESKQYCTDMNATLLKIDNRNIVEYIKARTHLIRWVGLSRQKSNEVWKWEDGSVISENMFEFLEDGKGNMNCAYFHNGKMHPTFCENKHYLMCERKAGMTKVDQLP
T7 sequence (P16671 30-439 limits assumed): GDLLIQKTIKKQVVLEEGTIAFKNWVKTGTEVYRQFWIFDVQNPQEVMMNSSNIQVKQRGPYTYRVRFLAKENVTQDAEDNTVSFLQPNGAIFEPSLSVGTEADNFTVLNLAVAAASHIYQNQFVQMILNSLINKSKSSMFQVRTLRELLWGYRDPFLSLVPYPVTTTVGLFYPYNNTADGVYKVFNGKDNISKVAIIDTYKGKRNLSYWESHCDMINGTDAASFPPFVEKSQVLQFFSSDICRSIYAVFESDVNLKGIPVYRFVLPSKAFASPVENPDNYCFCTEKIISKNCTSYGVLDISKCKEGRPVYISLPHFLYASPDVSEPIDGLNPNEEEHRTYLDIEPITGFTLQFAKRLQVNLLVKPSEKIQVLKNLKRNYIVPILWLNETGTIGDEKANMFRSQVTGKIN
T12 sequence (Q9XTA8 55-274): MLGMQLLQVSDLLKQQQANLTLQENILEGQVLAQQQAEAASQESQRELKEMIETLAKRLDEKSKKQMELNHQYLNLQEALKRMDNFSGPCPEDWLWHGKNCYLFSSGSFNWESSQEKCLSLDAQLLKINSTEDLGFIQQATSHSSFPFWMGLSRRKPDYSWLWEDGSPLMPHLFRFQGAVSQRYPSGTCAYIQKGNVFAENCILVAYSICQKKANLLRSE
T10 sequence (Q9EQ09 55-363): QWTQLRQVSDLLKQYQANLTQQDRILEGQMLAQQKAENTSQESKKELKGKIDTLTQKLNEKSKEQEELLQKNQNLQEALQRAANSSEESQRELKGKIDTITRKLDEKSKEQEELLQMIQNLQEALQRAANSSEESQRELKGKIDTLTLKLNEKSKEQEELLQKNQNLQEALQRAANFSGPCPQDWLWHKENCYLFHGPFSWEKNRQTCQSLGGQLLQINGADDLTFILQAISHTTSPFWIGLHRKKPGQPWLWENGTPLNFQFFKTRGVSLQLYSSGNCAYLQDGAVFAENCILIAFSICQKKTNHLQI
T11 sequence (O70156 55-364): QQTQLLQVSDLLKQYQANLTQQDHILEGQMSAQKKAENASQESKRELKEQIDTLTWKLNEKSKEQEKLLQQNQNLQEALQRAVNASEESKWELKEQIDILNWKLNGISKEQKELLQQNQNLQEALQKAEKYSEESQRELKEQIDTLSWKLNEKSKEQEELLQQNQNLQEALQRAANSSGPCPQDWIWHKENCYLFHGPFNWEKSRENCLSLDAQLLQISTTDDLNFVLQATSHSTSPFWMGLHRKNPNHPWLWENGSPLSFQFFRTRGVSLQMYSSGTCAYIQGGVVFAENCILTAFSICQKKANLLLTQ

B1: LOX514 IgG1-TM (antibody, V domains shown)
VH: QVQLVQSGAEVKKPGASVKVSCKVSGYTLTELSMHWVRQAPGKGLEWMGGFDPEDGETIYAQKFQGRVTMTEDTSTDTAYMELSSLRSEDTAVYYCATPNGQQGKGVRGWDYYYGMDVWGRGTTVTVSS
VL: QSVVTQPPSVSGAPGQRVTISCTGSSSNIGAGYDVHWYQQLPGTAPKLLIYGNSNRPSGVPDRFSGSKSGTSASLAITGLQAEDEADYYCQSYDSSLSGWVFGGGTKLTVL
notes: Whole human IgG1-TM (L234F/L235E/P331S); Labelled with DyLight 649 in Assay 7; also called LOX10514-IgG1-TM; LOX10514 IgG1-TM
IC50 of inhibition of Cypher 5E oxLDL internalization in hLOX1 CHO TREX cells (row label not given; assay assigned by block order of Table 5) [1]: 772 pM
IC50 of inhibition of oxLDL-dependent ROS generation in hLOX1 CHO TREX cells (row label not given; assay assigned by block order of Table 5) [1]: 8.28 nM
binding result [2]: no binding (tested: 0.2 µg/mL (single concentration))
binding result [3]: no binding (tested: 0.2 µg/mL (single concentration))
binding result [4]: no binding (tested: 0.2 µg/mL (single concentration))
binding result [5]: no binding (tested: 0.2 µg/mL (single concentration))
binding result [6]: no binding (tested: 0.2 µg/mL (single concentration))
binding result [7]: no binding (tested: 0.2 µg/mL (single concentration))
IC50 (read off the curve) [8]: ~100 pM
IC50 (read off the curve) [9]: ~2 nM
IC50 [10]: 0.642 nM
IC50 [11]: 0.207 nM
IC50 [12]: 1.98 nM
Kd [13]: 0.8 nM

B2: LX6960073_G82bS_gl IgG1-TM (antibody, V domains shown)
VH: EVQLVESGGGLVQPGRSLRLSCAASGFTSDDYAMHWVRQAPGKGLEWVSGISWNSGSIGYADSVKGRFTISRDNAKNSLYLQMNSLRAEDTAVYYCAREGSWNYDALDIWGQGTMVTVSS
VL: QSALTQPASVSGSPGQPITISCTGTSSDVGGYNYVSWYQQHPGKAPKLMIYDVSKRPSGVSNRFSGSKSGNTASLTISGLQAEDEADYYCMGGMGRSTNWVFGGGTKLTVL
notes: Whole human IgG1-TM, germlined, with heavy chain G82bS (Kabat); also called LOX10696_73
ROS ASSAY (IC50, mean) [14]: 2.21 nM
oxLDL/hLOX1 CHO Internalisation (IC50, mean) [14]: 380 pM
binding result [15]: no binding
binding result [16]: no binding
binding result [17]: no binding
binding result [18]: no binding
binding result [19]: no binding
binding result [20]: no binding
IC50 [21]: 0.02 nM
IC50 [22]: 0.0177 nM
IC50 [23]: 3 nM
IC50 [24]: 0.105 nM
binding result [25]: no binding (tested: 10 µg/mL (single concentration))
binding result [26]: no binding (tested: 10 µg/mL (single concentration))
binding result [27]: no binding (tested: 10 µg/mL (single concentration))
IC50 (read off the curve) [28]: ~800 pM
IC50 (read off the curve) [29]: ~20 pM
IC50 (read off the curve) [30]: ~3 nM
IC50 (read off the curve) [31]: ~300 pM
